From the supplement of paper PMC10567573

B1: CCDC6 (parent)
chain: ASVTIQARAEQEEEFISNTLFKKI

Variants of: B1
Assay: protein stability index of a GFP-peptide fusion (GPS, HEK-293T) (PSI 1-6); higher = more stable
Conditions: c terminus: a fixed tail appended
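Further: lentivirally expressed fusions sorted by FACS into six bins by GFP to DsRed ratio, PSI derived from sequencing read proportions per bin multiplied by bin number.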

Protein stability index, by site and new letter:
F15: R 4.09, H 3.72, C 4.19, T 4.52, L 3.73, M 3.67, A 4.49, P 4.61, V 4.52, K 4.13, Q 4.46, G 4.4, D 4.68, I 4.18, S 4.03, Y 3.78, E 4.69, W 2.98, N 4.65
V3: Y 3.42, A 4.51, E 4.86, G 4.44, M 3.5, S 4.38, I 3.09, H 4.1, F 3.44, C 1.9, T 4.57, N 4.6, L 3.84, P 4.5, Q 4.42, D 4.89, R 3.9, K 4.33, W 3.32
A1: Y 2.27, Q 4.09, V 2.56, P 3.59, H 3.85, L 2.48, R 3.51, M 3.1, T 3.85, N 3.78, I 1.84, W 1.86, K 3.68, S 3.75
E10: H 3.25, D 3.4, M 2.95, Q 3.22, K 3.15, W 1.54, G 2.38, L 2.15, T 3.22, N 3.1, V 2.27, A 3.06, P 2.83, I 2.39, S 3.14, C 2.1, F 2.29, R 2.95, Y 2.03
E14: I 2.22, D 3.31, Y 2.31, Q 2.99, A 3.13, M 2.99, K 3.2, S 2.79, R 2.52, N 2.95, V 2.7, P 3.01, W 1.81, T 2.87, H 2.7, C 2.08, F 1.87, L 1.89, G 3.02
A9: M 3.08, V 2.91, I 2.62, N 3.63, S 3.79, F 2.37, K 3.6, Y 2.72, R 3.61, D 4.42, Q 4.09, T 3.68, P 3.87, E 4.16, H 3.17, C 3.23, W 2.27, L 2.5, G 3.67
T4: M 3.2, Q 3.74, S 3.86, Y 2.56, V 2.88, I 3.33, E 4.41, H 3.61, P 4.32, F 2.44, D 4.17, G 3.63, N 3.98, W 2.06, R 3.14, K 3.29, A 4.46, L 3.21, C 3.52
N18: Q 3.42, L 2.56, F 2.27, G 3.6, P 3.96, E 4.09, S 3.54, K 3.87, M 2.34, V 1.5, T 3.75, H 3.41, A 3.27, C 2.79, D 4.34, R 3.07
I5: P 4.7, E 4.58, N 4.49, V 4, R 4.44, T 4.28, M 4.29, S 4.24, H 4.32, K 4.65, L 3.84, F 3.96, G 4.75, W 3.66, Q 5.03, A 4.34, C 4.5, D 4.84, Y 3.73
S17: N 3.59, C 2.8, K 4.03, R 3.26, Y 2.9, F 2.98, P 3.92, V 3.18, T 4.27, Q 3.77, I 2.85, L 3.35, G 3.5, E 3.9, W 2.54, D 4.38, M 3.06, H 3.58, A 3.64
A7: F 1.98, G 3.66, K 3.69, Y 2.8, V 2.8, N 3.69, T 3.85, R 3, C 2.45, H 3.6, P 3.67, Q 3.93, E 4.49, S 3.9, D 4.31, M 2.67, W 2.74, L 2.12, I 1.93
E13: F 2.23, L 2.38, W 2.08, T 3.08, G 3.39, Q 3.29, I 2.18, V 2.41, P 3.4, N 3.16, Y 2, R 3.18, C 3.07, H 2.29, A 2.8, K 3.71, M 2.58, S 3.11, D 3.54
S2: L 2.32, Y 2.19, M 2.81, A 4.01, W 2.37, I 3.08, E 4.11, G 3.92, N 3.99, Q 3.71, K 3.38, V 2.73, H 3.17, R 3.35, T 3.33, C 2.84, F 2.11, P 4.25, D 4.58
Q11: N 3.71, E 4.13, K 3.4, H 3.37, W 2.07, P 3.67, M 2.29, D 3.99, V 2.56, Y 2.91, C 2.97, I 2.39, L 2.97, G 3.49, F 2.07, A 3.52, T 3.4, R 2.83, S 3.75
E12: G 2.94, M 1.9, W 2.21, S 2.95, T 2.68, N 3.06, R 2.7, L 2.07, H 2.83, V 2.19, D 3.67, K 3.17, P 3.03, I 1.69, Q 3.27, Y 2.2, A 2.58, F 2.12, C 2.35
I16: E 4.53, L 3.94, K 4.53, P 4.35, H 4.28, G 4.43, S 4.25, N 4.57, M 3.82, F 3.49, D 4.34, A 3.84, C 4.11, W 2.92, Y 3.42, V 4.05, T 3.95, R 3.92, Q 4.66
R8: W 3.27, P 4, I 2.98, F 2.59, Q 4.14, V 3.31, Y 3.21, C 3.27, K 3.79, M 3.12, A 3.79, S 4.05, L 3.03, E 4.55, G 4.13, H 3.78, D 4.23, T 3.58, N 3.69
Q6: M 2.54, P 4.2, N 3.75, H 3.49, F 2.89, L 2.71, E 4.26, V 2.71, T 3.53, R 3.26, G 3.73, C 2.81, I 1.97, S 3.35, W 2.94, K 3.98, D 4.32, Y 1.94, A 3.47
